Results published in US9205136B2, “Human aminoacyl-tRNA synthetase polypeptides useful for the regulation of angiogenesis” (THE SCRIPPS RESEARCH INSTITUTE, priority 2000, dated 2015).

Legend:
MPs = assay: MP chemotaxis assay (ChemoTX microchemotaxis chamber); assay type: cell-based, human; conditions: for MP migration induced by synthetic peptide: assay as in Example 2; for MP chemotaxis (MP migration): sample proteins 1 nM, 3 hours
Description: (§1) Cells for the various cytokine assays described were prepared from acid citrate dextrose-treated blood of normal healthy volunteers. Human PMNs were isolated from the blood by centrifugation (700×g) over Histopaque 1077 and 1119 (Sigma). […] This procedure was repeated twice. Human MPs were isolated by centrifugation on Histopaque 1077 (Sigma). The mononuclear fraction was obtained, washed twice in Hanks' balanced salt solution, resuspended in RPMI-1640 medium (Sigma) containing 10% heat-inactivated fetal bovine serum (Sigma), plated in tissue culture flasks, and incubated in a 6% CO2 incubator at 37° C. for 1-2 hours (Kumagai et al., 1979, J. Immunol. Methods 29:17-25). Nonadherent cells were removed by washing the flasks three times with Hanks' balanced salt solution, and adherent cells were harvested by incubation with calcium-magnesium free phosphate-buffered saline containing 2 mM EDTA for 15 minutes at 4° C., followed by extensive washing.
MP chemotaxis assays were performed in a ChemoTX microchemotaxis chamber (Neuro Probe, Gaithersburg, Md.) containing polycarbonate filters (5 μm pores) with polyvinylpyrrolidone (PVP). MPs were suspended in RPMI-1640 medium containing 1% heat-inactivated fetal bovine serum, and 10^4 cells were added to the upper chamber. Sample proteins (1 nM) were added to the lower compartment of chemotaxis chambers, and the chambers were incubated for 3 hours. After incubation, nonmigrating cells were removed, membranes were fixed in methanol, and migrating cells were visualized with the HEMACOLOR™ stain set (EM Diagnostic Systems, Gibbstown, N.J.). Migrating cells were counted in high-power fields (HPFs). Each determination shown in FIG. 2 represents the average of nine HPF measurements.

PMNs [1] = assay: PMN chemotaxis assay (ChemoTX microchemotaxis chamber); assay type: cell-based, human; conditions: for PMN migration induced by synthetic peptide: assay as in Example 2; for PMN chemotaxis (PMN migration): sample proteins 1 nM, 45 min
Description: as §1
PMN chemotaxis assays were performed in a ChemoTX microchemotaxis chamber (described herein). Sample proteins (1 nM) were added to the lower compartment of chemotaxis chambers, and 10^4 PMNs were added to the upper compartment. Chambers were incubated for 45 min, and migrating cells were counted in HPFs. Each determination shown in FIG. 2 represents the average of nine HPF measurements.

PMNs [2] = assay: 125I-human mini TyrRS binding and competition assay on PMNs; conditions: for inhibition of 125I-mini TyrRS binding to PMNs by unlabeled ligand: 10 nM 125I-mini TyrRS, 200-fold molar excess of unlabeled ligand, on ice 2 hours
Description: The interaction of human mini TyrRS and PMNs was examined in binding studies using radioiodinated TyrRS molecules (Moser et al., 1993, J. Biol. Chem. 268:7125-28). Custom radioiodination of mini TyrRS with was performed by Research & Diagnostic Antibody (Richmond, Calif.). In the binding assays, 2×10^6 PMNs were first suspended in 120 μl of RPMI-1640 medium containing 20 mM Hepes (pH 7.4) and 10 mg/ml bovine serum albumin. […] Following incubation, cells were separated from unbound radioactivity by centrifugation at approximately 8000×g for 2 minutes through 500 μL, of a 10% sucrose/phosphate-buffered saline (PBS) cushion. The supernatant was aspirated, and the cell sediment was resuspended using EcoLite (ICN Biomedicals, Irvine, Calif.) and analyzed in a scintillation counter.
Following incubation, cells were separated from unbound radioactivity as described herein.

chick CAM = assay: Inhibition of VEGF165-induced or mini TyrRS-induced angiogenesis in chick CAM; assay type: in vivo; conditions: 3 μg inhibitor
Description: In vivo angiogenesis assays were conducted in chick chorioallantoic membrane (CAM) (Nicolaou et al., 1998, Bioorg. Med. Chem. 6:1185-208). Ten-day-old chick embryos were purchased from Mcintyre Poultry (Lakeside, Calif.) and were incubated at 37° C. and 70% humidity. A small hole was made with a small crafts drill (Dremel, Emerson Electric, Racine, Wis.) directly over the air sac at the end of the egg. The embryos were candled to determine a location to drill a second hole directly over embryonic blood vessels. […] A window was cut in the eggshell over the dropped CAM, exposing the CAM to direct access for experimental manipulation. Cortisone acetate-treated 5 mm filter disks were soaked with a particular protein sample (25 ng of VEGF165 or 250 ng of a given TyrRS molecule) and the filter disks added directly to the CAMs, which were relatively devoid of preexisting blood vessels. The windows were sealed with sterile tape and incubated at 37° C. At 0, 24, and 48 hours following incubation, 3 μg of […] (IP-10) (R & D Systems, Minneapolis, Minn.) was topically applied to the filter disks. After 72 hours, the CAM tissue associated with the filter disk was harvested and quantified using a stereomicroscope. Angiogenesis was assessed as the number of visible blood vessel branch points within the defined area of the filter disks. Each determination shown in FIG. 17 represents the mean from 5-8 embryos.
The angiostatic activity of human full-length TrpRS and human mini TrpRS was also analyzed in in vivo angiogenesis assays conducted in chick CAM. In vivo angiogenesis assays were performed as described in Example 12 with 3 μg of full-length TrpRS or mini TrpRS added to VEGF165-induced or mini TyrRS-induced CAM tissue.

Molecule | MP migration induced by synthetic peptide (MPs; synthetic heptapeptides) | PMN migration induced by synthetic peptide (PMNs [1]; synthetic heptapeptides) | inhibition of 125I-mini TyrRS binding to PMNs by unlabeled ligand (PMNs [2]) | PMN chemotaxis (PMN migration) (PMNs [1]) | further results
R-V-G-F-I-Q-K (RVGFIQK; listed as Saccharomyces cerevisiae) [synthetic peptide derived from S. cerevisiae Arc1p, reference compound] | neither peptide induced PMN or MP migration | neither peptide induced PMN or MP migration |  |  | 
R-V-G-R-I-I-K (RVGRIIK; Caenorhabditis elegans) [synthetic peptide derived from C. elegans MetRS, reference compound] | neither peptide induced PMN or MP migration | neither peptide induced PMN or MP migration |  |  | 
Gro: human recombinant Gro (Biosource International), α-chemokine |  |  | did not significantly inhibit the binding |  | 
IP-10: angiostatic α-chemokine (R & D Systems) |  |  |  |  | inhibition of VEGF165-induced angiogenesis in chick CAM (chick CAM; 25 ng VEGF165, 72 hours): inhibited; inhibition of mini TyrRS-induced angiogenesis in chick CAM (chick CAM; 250 ng mini TyrRS, 72 hours): inhibited
R-V-G-K-I-I-T (RVGKIIT; listed as Homo sapiens) [TyrRS carboxyl-terminal domain peptide, synthetic peptide derived from the TyrRS carboxyl-terminal domain] | MP migration | induced PMN migration |  |  | dose-dependence of peptide effect on MP migration (MPs; synthetic heptapeptides): dose-dependence similar to that of the mature EMAP II peptide; dose-dependence of peptide effect on PMN migration (PMNs [1]; synthetic heptapeptides): dose-dependence similar to that of the mature EMAP II peptide
truncated mini TyrRS: recombinant truncated mini TyrRS comprising residues 1-344 of human full-length TyrRS (protein, UniProt P54577 1-344, looked up, fragment) MGDAPSPEEKLHLITRNLQEVLGEEKLKEILKERELKIYWGTATTGKPHVAYFVPMSKIADFLKAGCEVTILFADLHAYLDNMKAPWELLELRVSYYENVIKAMLESIGVPLEKLKFIKGTDYQLSKEYTLDVYRLSSVVTQHDSKKAGAEVVKQVEHPLLSGLLYPGLQALDEEYLKVDAQFGGIDQRKIFTFAEKYLPALGYSKRVHLMNPMVPGLTGSKMSSSEEESKIDLLDRKEDVKKKLKKAFCEPGNVENNGVLSFIKHVLFPLKSEFVILRDEKWGGNKTYTAYVDLEKDFAAEVVHPGDLKNSVEVALNKLLDPIREKFNTPALKKLASAAYPDP |  |  |  | capable of functioning as a chemoattractant for PMNs | MP chemotaxis (MP migration) (MPs): not for MPs
NAP-2: human recombinant NAP-2 (Biosource International), α-chemokine (protein) AELRCMCIKTTSGIHPKNIQSLEVIGKGTHCNQVEVIATLKDGRKICLDPDAPRIKKIVQKKLAGDESAD |  |  | did not significantly inhibit the binding |  | 
EMAP II: human mature endothelial monocyte-activating polypeptide II, C-terminal His6 tag (protein) ANNDAVLKRLEQKGAEADQIIEYLKQQVSLLKEKAILQATLREEKKLRVENAKLKKEIEELKQELIQAEIQNGVKQIPFPSGTPLHANSMVSENVIQSTAVTTVSSGTKEQIKGGTGDEKKAKEKIEKKGEKKEKKQQSIAGSADSKPIDVSRLDLRIGCIITARKHPDADSLYVEEVDVGEIAPRTVVSGLVNHVPLEQMQNRMVILLCNLKPAKMRGVLSQAMVMCASSPEKIEILAPPNGSVPGDRITFDAFPGEPDKELNPKKKIWEQIQPDLHTNDECVATYKGVPFEVKGKGVCRAQTMSNSGIKHHHHHH |  |  | neither the TyrRS carboxyl-terminal domain nor EMAP II inhibited | induction of PMN migration | concentration dependence of PMN migration (PMNs [1]): bell-shaped concentration dependence
S. cerevisiae TyrRS: S. cerevisiae tyrosyl-tRNA synthetase, NYR in place of ELR (protein) MSSAATVDPNEAFGLITKNLQEVLNPQIIKDVLEVQKRHLKLYWGTAPTGRPHCGYFVPMTKLADFLKAGCEVTVLLADLHAFLDNMKAPLEVVNYRAKYYELTIKAILRSINVPIEKLKFVVGSSYQLTPDYTMDIFRLSNIVSQNDAKRAGADVVKQVANPLLSGLIYPLMQALDEQFLDVDCQFGGVDQRKIFVLAEENLPSLGYKKRAHLMNPMVPGLAQGGKMSASDPNSKIDLLEEPKQVKKKINSAFCSPGNVEENGLLSFVQYVIAPIQELKFGTNHFEFFIDRPEKFGGPITYKSFEEMKLAFKEEKLSPPDLKIGVADAINELLEPIRQEFANNKEFQEASEKGYPVATPQKSKKAKKPKNKGTKYPGATKTNEIATKLEETKL |  |  | inhibited the binding | no chemotaxis was observed | PMN chemotaxis over a concentration series (PMNs [1]; 0.1, 1, 10, 100, and 1000 nM): No significant chemotaxis; dissociation constant relative to that for human mini TyrRS (PMNs [2]; PMN binding competition): ≤ 200 fold
extended carboxyl-terminal domain: recombinant residues 344-528 of human full-length TyrRS (protein, UniProt P54577 344-528, looked up, fragment) PSKQKPMAKGPAKNSEPEEVIPSRLDIRVGKIITVEKHPDADSLYVEKIDVGEAEPRTVVSGLVQFVPKEELQDRLVVVLCNLKPQKMRGVESQGMLLCASIEGINRQVEPLDPPAGSAPGEHVFVKGYEKGQPDEELKPKKKVFEKLQADFKISEECIAQWKQTNFMTKLGSISCKSLKGGNIS |  |  |  | capable of can inducing both MP and PMN chemotaxis | MP chemotaxis (MP migration) (MPs): capable of can inducing both MP and PMN chemotaxis
